Test results published in patent US11260115B1, “Peptides and combination of peptides for use in immunotherapy against CLL and other cancers” (immatics biotechnologies GmbH, priority 2015, dated 2022).

Biological target: HLA-A*02:01 (Homo sapiens, UniProt P04439, D140Y/D185E/D98H/E176V/E277Q/G131W/G231S/I119V/I121R/I166T/I218V/L300P/L318F/N151K/N90K/P208A/P217A/Q86G/Q94H/R138H/R169H/T345S)
Experiment: MHC binding assay (UV-ligand exchange, β2m ELISA, peptide exchange yield)
Details: binding to HLA-A*02:01
Text: Candidate peptides for T cell based therapies according to the present invention were further tested for their MHC binding capacity (affinity). The individual peptide-MHC complexes were produced by UV-ligand exchange, where a UV-sensitive peptide is cleaved upon UV-irradiation, and exchanged with the peptide of interest as analyzed. Only peptide candidates that can effectively bind and stabilize the peptide-receptive MHC molecules prevent dissociation of the MHC complexes. To determine the yield of the exchange reaction, an ELISA was performed based on the detection of the light chain (β2m) of stabilized MHC complexes. The assay was performed as generally described in Rodenko et al. (Rodenko et al., 2006).
96 well MAXISorp plates (NUNC) were coated over night with 2 ug/ml streptavidin in PBS at room temperature, washed 4× and blocked for 1 h at 37° C. in 2% BSA containing blocking buffer. Refolded HLA-A*02:01/MLA-001 monomers served as standards, covering the range of 15-500 ng/ml. Peptide-MHC monomers of the UV-exchange reaction were diluted 100 fold in blocking buffer. Samples were incubated for 1 h at 37° C., washed four times, incubated with 2 ug/ml HRP conjugated anti-β2m for 1 h at 37° C., washed again and detected with TMB solution that is stopped with […]. Absorption was measured at 450 nm. Candidate peptides that show a high exchange yield (preferably higher than 50%, most preferred higher than 75%) are generally preferred for a generation and production of antibodies or fragments thereof, and/or T cell receptors or fragments thereof, as they show sufficient avidity to the MHC molecules and prevent dissociation of the MHC complexes.
Table 11: MHC class I binding scores. Binding of HLA-class I restricted peptides to HLA-A*02:01 was ranged by peptide exchange yield: ≥10%=+; ≥20%=++; ≥50=+++; ≥75%=++++

Substance | Peptide Exchange (MHC class I binding score, peptide exchange yield)
84 (GVMDVNTAL; listed as Homo sapiens) [compound 84] | “++” (>20% = ++)
42 (FLEEGGVVTV; listed as Homo sapiens) [compound 42] | “+++” (>50 = +++)
341 (LLAELPASVHA; listed as Homo sapiens) [compound 341] | “+++” (>50 = +++)
70 (FVPDTPVGV; listed as Homo sapiens) [compound 70] | “+++” (>50 = +++)
83 (GQGEVLVYV; listed as Homo sapiens) [compound 83] | “+++” (>50 = +++)
20 (ALVDPGPDFVV; listed as Homo sapiens) [compound 20] | “+++” (>50 = +++)
28 (AVLHLLLSV; listed as Homo sapiens) [compound 28] | “++” (>20% = ++)
235 (GLDDLLLFL; listed as Homo sapiens) [compound 235] | “+++” (>50 = +++)
80 (VLIEDELEEL; listed as Homo sapiens) [compound 80] | “++” (>20% = ++)
339 (GLWGTVVNI; listed as Homo sapiens) [compound 339] | “+++” (>50 = +++)
90 (VIADLGLIRV; listed as Homo sapiens) [compound 90] | “+++” (>50 = +++)
138 (NLLDIDAPVTV; listed as Homo sapiens) [compound 138] | “+++” (>50 = +++)
357 (FLIQEIKTL; listed as Homo sapiens) [compound 357] | “+++” (>50 = +++)
370 (SIFASPESV; listed as Homo sapiens) [compound 370] | “+++” (>50 = +++)
110 (LLFDHLEPMEL; listed as Homo sapiens) [compound 110] | “+++” (>50 = +++)
165 (TLDDDLDTV; listed as Homo sapiens) [compound 165] | “++” (>20% = ++)
151 (SLFDSAYGA; listed as Homo sapiens) [compound 151] | “+++” (>50 = +++)
124 (LLLEETEKQAV; listed as Homo sapiens) [compound 124] | “+++” (>50 = +++)
187 (VMDTHLVNI; listed as Homo sapiens) [compound 187] | “++++” (>75% = ++++)
10 (FVYGESVEL; listed as Homo sapiens) [compound 10] | “+++” (>50 = +++)
260 (SLDDVEGMSV; listed as Homo sapiens) [compound 260] | “+++” (>50 = +++)
37 (FIMEGGAMVL; listed as Homo sapiens) [compound 37] | “++++” (>75% = ++++)
305 (LLFPQIEGIKI; listed as Homo sapiens) [compound 305] | “+++” (>50 = +++)
21 (ALWAGLLTL; listed as Homo sapiens) [compound 21] | “+++” (>50 = +++)
59 (FVFGDENGTVSL; listed as Homo sapiens) [compound 59] | “+++” (>50 = +++)
384 (YMIGSEVGNYL; listed as Homo sapiens) [compound 384] | “++++” (>75% = ++++)
44 (FLLSINDFL; listed as Homo sapiens) [compound 44] | “+++” (>50 = +++)
147 (SILETVATL; listed as Homo sapiens) [compound 147] | “+++” (>50 = +++)

Substance | Peptide Exchange (MHC class I binding score, peptide exchange yield)
360 (HLIDTNKIQL; listed as Homo sapiens) [compound 360] | “+++” (>50 = +++)
241 (ILGDILLKV; listed as Homo sapiens) [compound 241] | “+++” (>50 = +++)
330 (VLMWEIYSL; listed as Homo sapiens) [compound 330] | “+++” (>50 = +++)
62 (GIIDGSPRL; listed as Homo sapiens) [compound 62] | “+++” (>50 = +++)
220 (ALPEILFAKV; listed as Homo sapiens) [compound 220] | “+++” (>50 = +++)
314 (LMKDCEAEV; listed as Homo sapiens) [compound 314] | “+++” (>50 = +++)
168 (YLLDQSFVM; listed as Homo sapiens) [compound 168] | “++++” (>75% = ++++)
285 (GVATAGCVNEV; listed as Homo sapiens) [compound 285] | “++++” (>75% = ++++)
326 (VLAFLVHEL; listed as Homo sapiens) [compound 326] | “++++” (>75% = ++++)
23 (ALYLTEVFL; listed as Homo sapiens) [compound 23] | “++++” (>75% = ++++)
120 (AIDAALTSV; listed as Homo sapiens) [compound 120] | “+++” (>50 = +++)
355 (FIWPMLIHI; listed as Homo sapiens) [compound 355] | “+++” (>50 = +++)
286 (FLLEDLSQKL; listed as Homo sapiens) [compound 286] | “+++” (>50 = +++)
364 (KMDWIFHTI; listed as Homo sapiens) [compound 364] | “+++” (>50 = +++)
353 (ATPMPTPSV; listed as Homo sapiens) [compound 353] | “++” (>20% = ++)
301 (AASPIITLV; listed as Homo sapiens) [compound 301] | “+++” (>50 = +++)
288 (GLAESTGLLAV; listed as Homo sapiens) [compound 288] | “+++” (>50 = +++)
73 (GLLEVISALQL; listed as Homo sapiens) [compound 73] | “+++” (>50 = +++)
89 (ILDFGTFQL; listed as Homo sapiens) [compound 89] | “+++” (>50 = +++)
231 (FLYIRQLAI; listed as Homo sapiens) [compound 231] | “+++” (>50 = +++)
3 (VIAELPPKV; listed as Homo sapiens) [compound 3] | “++” (>20% = ++)
275 (VLLFIEHSV; listed as Homo sapiens) [compound 275] | “+++” (>50 = +++)
262 (SLWNAGTSV; listed as Homo sapiens) [compound 262] | “+++” (>50 = +++)
300 (ILLNPAYDVYL; listed as Homo sapiens) [compound 300] | “+++” (>50 = +++)
188 (VMGDIPAAV; listed as Homo sapiens) [compound 188] | “++” (>20% = ++)
335 (YLYQEQYFI; listed as Homo sapiens) [compound 335] | “+++” (>50 = +++)
207 (IIADLDTTIMFA; listed as Homo sapiens) [compound 207] | “+++” (>50 = +++)
